Article PMC10641069, “Intra- and inter-molecular regulation by intrinsically-disordered regions governs PUF protein RNA binding” (Nature Communications, 2023)
Several values for one entry are separate records, joined by “and”; a condition that tells them apart may be missing. Identical values can stand only once. Like-named read-outs stand apart in the source and are kept apart here.

How the values were obtained:
[1] = Melting temperature of FBF-2 proteins; type: physicochemical
Description: Mutants of FBF-2 RBD + CT: Y479A (5′-[…]), L610A (5′-[…]), and Loop6A (E592A, D594A, E597A, E599A, E604A, E605A; 5′-[…]) were generated by site-directed mutagenesis with the primers indicated. Plasmid sequences were verified by DNA sequencing (Azenta Life Sciences). Protein variants were expressed and purified like wild type proteins. Melting temperatures of wild type and mutant proteins were assessed by differential scanning […]. Reaction mixtures (total volume of 20 μl) contained ~0.3 mg/ml FBF-2 proteins and Sypro Orange dye (1:1000 dilution) (Sigma). Fluorescent intensity was collected from 25 °C to 95 °C (3 °C increment/min) with a real time PCR instrument (Applied Biosystems™ QuantStudio 7 Flex System) using excitation and emission wavelengths of 470 nm and 586 nm, respectively. Protein Thermal Shift^TM software (Applied Biosystems, version 1.4) was used to analyze protein melting curves and calculate melting temperatures (Tm).

[2] = molecular target: gld-1 FBEa RNA; test: Surface plasmon resonance, RNA-binding kinetics; parameters: species or system C. elegans
Description: Kinetics of FBF-2 binding to the gld-1 FBEa RNA were measured using a 2-channel OpenSPR instrument (Nicoya). A 3′-biotin-labeled synthetic RNA was ordered from Horizon Discovery (gld-1 FBEa, 5′-AUCAUGUGCCAUACA-biotin-3′). The 3′-biotinylated RNA was immobilized on streptavidin-treated biotin sensor chips (Nicoya). All experiments were performed at 20 °C with a buffer of 20 mM HEPES, pH 7.4, 150 mM NaCl, and 2 mM DTT. SPR data were collected using OpenSPR (Nicoya, version 4.3). FBF-2 proteins were injected with a flow rate of 20 µl/min. Data were obtained at five different protein concentrations (25, 50, 100, 200, and 400 nM for wild type RBD + CT; 12.5, 25, 50, 100, and 200 nM for RBD + CT mutants and wild type RBD). Sensor chips were regenerated using 0.05% or 0.1% (v/v) SDS. For each experiment, five binding curves were simultaneously fit using a 1:1 binding model with the TraceDrawer software (Ridgeview Instruments, version 1.9.1). Mean values and standard deviation were calculated from two technical replicates. Despite our efforts, the fit of the binding curves for the association phase of FBF-2 RBD and FBF-2 RBD + CT mutants is poorer than the fit for FBF-2 RBD + CT WT. The appearance of the curves is consistent with the derived kon and koff values, and importantly, the curve fit for the dissociation phase is better.

[3] = molecular target: gld-1 FBEa RNA; test: Electrophoretic mobility shift assay (EMSA), RNA binding; parameters: species or system C. elegans
Description: A 3′-Cy5-labeled synthetic RNA was ordered from IDT (gld-1 FBEa, 5′-[…]-3′). The FBF-2 proteins were serially diluted 2-fold from the highest concentration of 10 µM in the buffer used for gel filtration (20 mM HEPES pH 7.4, 150 mM NaCl, and 0.5 mM TCEP). 10 µl of the serially diluted protein samples were mixed with 10 µl RNA (10 nM) in a 2× buffer of 10 mM HEPES pH 7.4, 0.01% (v/v) Tween 20, 0.1 mg/ml BSA, 0.1 mg/ml yeast tRNA, and 2 mM DTT. For experiments in the presence of LST-1, LST-1 proteins at constant concentration were preincubated with FBF-2 at 4 °C for 2 h. The LST-1 concentrations were chosen based on their Kd’s for interaction with FBF-2. The final FBF-2 concentrations ranged from 5000 nM to 0.6 nM, and the LST-1 A or B concentrations were constant at 150 μM or 50 μM, respectively. The protein-RNA mixtures were incubated at 4 °C overnight. The samples were resolved on 10% TBE polyacrylamide gels run at constant voltage (100 V) with 1× TBE buffer at room temperature for 35 min. The gels were scanned and visualized with a Typhoon FLA 9500 imager using the Cy5 channel (excitation wavelength 635 nm). Band intensities were quantified with ImageQuant 5.2 (Cytiva). The data were fit with GraphPad Prism (version 9.2.0) using nonlinear regression with a one-site specific binding model. Mean Kd’s and standard error of the mean (SEM) from three or more technical replicates are reported (Supplementary Table 4). Full scan images for the replicates shown in the main figures and gel images for all replicates are included in a source data file.

[4] = test system: C. elegans; conditions: cited from earlier work; for sterile progeny: fbf-1 loss-of-function background, failure to initiate oogenesis, ref 41 (Wang, et al. 2016)
Text: Our previous structural and biochemical studies relied on FBF-2^164–575, a fragment with the RBD that lacks its intrinsically disordered C-terminal tail but retains its in vivo RNA-binding specificity (Fig. 1a)[17],[18],[36],[39],[40]. […] A worm strain that expresses truncated FBF-2 lacking the C-terminal 26 residues (607-632) was generated in an fbf-1 loss-of-function background. Approximately 11% of the mutant progeny were sterile due to failure to initiate oogenesis, indicating a germline defect. In contrast, worms expressing full-l ... || In the PUF hub, FBF-1 and FBF-2 play a more prominent role than PUF-3 and PUF-11[55]. FBF-1 and FBF-2 amino acid sequences are 91% identical and have largely overlapping functions. […] When the CT of FBF-1 is replaced with the FBF-2 CT, the chimeric protein produces a progenitor region that m ... || page 6: Reviewer #2 (Remarks to the Author): This manuscript uses structural and biochemical approaches to understand how partner proteins and intrinsically disordered regions (IDRs) impact RNA binding of FBF-2. The crystal structure of FBF-2 CT is novel and the proposed role of the CT in autoinhibition by intramolecular interaction with RBD is interesting. However, why this autoinhibition would be needed in vivo is less clear, especially in regard to the interaction with partner proteins. While the authors also mention this shortcoming, some attempt to address the biological consequences of t ...

[5] = mean ± SD, three technical replicates, ~0.3 mg/ml protein, Sypro Orange, 25 to 95 °C, fluorescence
[6] = derived from on/off rates, mean ± SD, two technical replicates
[7] = mean ± SD, two technical replicates, 20 °C, pH 7.4, 1:1 model
[8] = no LST-1, mean ± SEM of independent technical replicates (n = 3-5), 4 °C overnight, pH 7.4, Cy5-RNA 5′-AUCAUGUGCCAUAC-3′

B1: FBF-2 RBD + CT Loop6A: FBF-2 RBD + CT with E592A, D594A, E597A, E599A, E604A, E605A (protein)
chain: SNNVLPTWSLDSNGEMRSRLSLSEVLDSGDLMKFAVDKTGCQFLEKAVKGSLTSYQKFQLFEQVIGRKDDFLKLSTNIFGNYLVQSVIGISLATNDDGYTKRQEKLKNFISSQMTDMCLDKFACRVIQSSLQNMDLSLACKLVQALPRDARLIAICVDQNANHVIQKVVAVIPLKNWEFIVDFVATPEHLRQICSDKYGCRVVQTIIEKLTADSMNVDLTSAAQNLRERALQRLMTSVTNRCQELATNEYANYIIQHIVSNDDLAVYRECIIEKCLMRNLLSLSQEKFASHVVEKAFLHAPLELLAEMMDEIFDGYIPHPDTGKDALDIMMFHQFGNYVVQCMLTICCDAVSGRRQTKEGGYDHAISFQDWLKKLHSRVTKERHRLSRFSSGKKMIETLANLRSTHPIYELQSSGHDSFKTDYFSTASAHAGPALAKNGIAAGSLMLEPRSNKSSVSVKFSSSGSHGDD
modifications: left off: His6-SUMO, N-terminal, cleaved
notes: FBF-2 RBD + CT with E592A, D594A, E597A, E599A, E604A, E605A
[1]; in words, vs RBD alone or vs RBD + CT
  thermal stability: only modestly decreased the thermal stability
[1]; [5]
  Tm: 37.58 ± 0.05 °C
[1]; replicate 1
  Tm: 37.54 °C
[1]; replicate 2
  Tm: 37.68 °C
[1]; replicate 3
  Tm: 37.54 °C
[2]; [6]
  Kd: 9.5 ± 4.2 nM
[2]; [7]
  koff: 0.94 ± 0.05 x10^-3 s^-1
  kon: 10.9 ± 4.3 x10^4 M^-1 s^-1
[2]; replicate 1
  kon: 78000 M⁻¹ s⁻¹
[2]; replicate 1, read-out: koff
  koff: 0.00097 s⁻¹
[2]; replicate 2
  kon: 139000 M⁻¹ s⁻¹
[2]; replicate 2, read-out: koff
  koff: 0.00091 s⁻¹
[3]
  Kd: 142 nM and 175 nM and 180 nM
[3]; [8]
  Kd: 101 nM
[3]; no LST-1, replicate 1
  Kd: 122 nM
[3]; no LST-1, replicate 2
  Kd: 100 nM
[3]; no LST-1, replicate 3
  Kd: 81 nM
[3]; pH 7.4
  Kd: 166 ± 21 nM

B2: truncated FBF-2: FBF-2 lacking the C-terminal 26 residues (607-632), expressed in worms (protein, UniProt Q09312 1-606, looked up, fragment)
chain: MDQSKMRRTNQFRKTSQKPPSTGIDSYPTPAQSPMAQHETPMWDFNSLNPYFSMLNMNDGINYARHQQNHIVTSRPPTPLTDLMSLRSFQSFPNVFMPVSRSRTSSFIQSDTDSSRLESDDFSQNVRCFSADIDRSKSYGSSKHYHLKYSRPALSRNSRSFTRSNNVLPTWSLDSNGEMRSRLSLSEVLDSGDLMKFAVDKTGCQFLEKAVKGSLTSYQKFQLFEQVIGRKDDFLKLSTNIFGNYLVQSVIGISLATNDDGYTKRQEKLKNFISSQMTDMCLDKFACRVIQSSLQNMDLSLACKLVQALPRDARLIAICVDQNANHVIQKVVAVIPLKNWEFIVDFVATPEHLRQICSDKYGCRVVQTIIEKLTADSMNVDLTSAAQNLRERALQRLMTSVTNRCQELATNEYANYIIQHIVSNDDLAVYRECIIEKCLMRNLLSLSQEKFASHVVEKAFLHAPLELLAEMMDEIFDGYIPHPDTGKDALDIMMFHQFGNYVVQCMLTICCDAVSGRRQTKEGGYDHAISFQDWLKKLHSRVTKERHRLSRFSSGKKMIETLANLRSTHPIYELQSSGHDSFKTDYFSTASEHDGPELEKNGIEEG
[4]
  sterile progeny: Approximately 11%

B3: FBF-2 RBD: FBF-2 RNA-binding domain, residues 164-575, lacking the C-terminal tail (protein)
chain: SNNVLPTWSLDSNGEMRSRLSLSEVLDSGDLMKFAVDKTGCQFLEKAVKGSLTSYQKFQLFEQVIGRKDDFLKLSTNIFGNYLVQSVIGISLATNDDGYTKRQEKLKNFISSQMTDMCLDKFACRVIQSSLQNMDLSLACKLVQALPRDARLIAICVDQNANHVIQKVVAVIPLKNWEFIVDFVATPEHLRQICSDKYGCRVVQTIIEKLTADSMNVDLTSAAQNLRERALQRLMTSVTNRCQELATNEYANYIIQHIVSNDDLAVYRECIIEKCLMRNLLSLSQEKFASHVVEKAFLHAPLELLAEMMDEIFDGYIPHPDTGKDALDIMMFHQFGNYVVQCMLTICCDAVSGRRQTKEGGYDHAISFQDWLKKLHSRVTKERHRLSRFSSGKKMIETLANLRSTHPIYELQ
modifications: left off: His6-SUMO, N-terminal, cleaved
[1]; [5]
  Tm: 36.32 ± 0.05 °C
[1]; replicate 1
  Tm: 36.42 °C
[1]; replicate 2
  Tm: 36.28 °C
[1]; replicate 3
  Tm: 36.28 °C
[2]; [6]
  Kd: 6.6 ± 2.3 nM
[2]; [7]
  koff: 0.00086 s⁻¹
  kon: 136000 M⁻¹ s⁻¹
[2]; replicate 1
  Kd: 8.2 nM
  kon: 120000 M⁻¹ s⁻¹
[2]; replicate 1, read-out: koff
  koff: 0.000979 s⁻¹
[2]; replicate 2
  Kd: 5 nM
  kon: 151000 M⁻¹ s⁻¹
[2]; replicate 2, read-out: koff
  koff: 0.00075 s⁻¹
[3]; in the presence of 50 μM LST-1 B, mean ± SEM, n = 3, 4 °C overnight, pH 7.4
  Kd: 176 nM
[3]; [8]
  Kd: 70 nM
[3]; no LST-1, replicate 1
  Kd: 75 nM
[3]; no LST-1, replicate 2
  Kd: 62 nM
[3]; no LST-1, replicate 3
  Kd: 98 nM
[3]; no LST-1, replicate 4
  Kd: 44 nM
[3]; with 50 μM LST-1 B, replicate 1
  Kd: 148 nM
[3]; with 50 μM LST-1 B, replicate 2
  Kd: 180 nM
[3]; with 50 μM LST-1 B, replicate 3
  Kd: 201 nM

B4: full-length FBF-2: worms expressing full-length FBF-2 in an fbf-1 loss-of-function background (protein, UniProt Q09312 1-632, looked up)
chain: MDQSKMRRTNQFRKTSQKPPSTGIDSYPTPAQSPMAQHETPMWDFNSLNPYFSMLNMNDGINYARHQQNHIVTSRPPTPLTDLMSLRSFQSFPNVFMPVSRSRTSSFIQSDTDSSRLESDDFSQNVRCFSADIDRSKSYGSSKHYHLKYSRPALSRNSRSFTRSNNVLPTWSLDSNGEMRSRLSLSEVLDSGDLMKFAVDKTGCQFLEKAVKGSLTSYQKFQLFEQVIGRKDDFLKLSTNIFGNYLVQSVIGISLATNDDGYTKRQEKLKNFISSQMTDMCLDKFACRVIQSSLQNMDLSLACKLVQALPRDARLIAICVDQNANHVIQKVVAVIPLKNWEFIVDFVATPEHLRQICSDKYGCRVVQTIIEKLTADSMNVDLTSAAQNLRERALQRLMTSVTNRCQELATNEYANYIIQHIVSNDDLAVYRECIIEKCLMRNLLSLSQEKFASHVVEKAFLHAPLELLAEMMDEIFDGYIPHPDTGKDALDIMMFHQFGNYVVQCMLTICCDAVSGRRQTKEGGYDHAISFQDWLKKLHSRVTKERHRLSRFSSGKKMIETLANLRSTHPIYELQSSGHDSFKTDYFSTASEHDGPELEKNGIEEGSLMLEPRSNKSSVSVKFSSSGSHGDD
modifications: full-length
notes: worms expressing full-length FBF-2 in an fbf-1 loss-of-function background
[4]; expressed as sole FBF protein, vs FBF-1
  germline progenitor region length: shorter germline progenitor regions than FBF-1
[4]
  sterile progeny: 0%
